According to patent publication US20230050846A1 (LIFESEARCH, published 2023):

Target: Human F1Fo-ATPase purified from HepG2 cells (human)
Assay: cell-based or functional assay

Row | Binder | F1-ATPase activity (NADH-coupled assay, purified F1Fo-ATPase, 1 µM peptide), inhibition as compared to control
1 | RGAGSIREAGGAFGKREQAEEERYFRAQSREQLAALKKHHEEEIVHH [IF1-10-56] | 88%
2 | IF1-1-60 (peptide) peptide: GSDQSENVDRGAGSIREAGGAFGKREQAEEERYFRAQSREQLAALKKHHEEEIVHHKKEI | 94%
3 | RGAGSIREAGGAFGKREQAEEERYFRAQSREQLAALKK [IF1-10-47] | 75%
